In publication PMC11110527 (Chemical Science, 2024):

Target: the molecule itself
Test: negative-stain electron microscopy

B1: AtPORB Y177F_H319A double mutant (enzyme, A. thaliana)
chain: QTAATSSPTVTKSVDGKKTLRKGNVVVTGASSGLGLATAKALAETGKWNVIMACRDFLKAERAAKSVGMPKDSYTVMHLDLASLDSVRQFVDNFRRTETPLDVLVCNAAVFFPTAKEPTYSAEGFELSVATNHLGHFLLARLLLDDLKKSDYPSKRLIIVGSITGNTNTLAGNVPPKANLGDLRGLAGGLNGLNSSAMIDGGDFDGAKAYKDSKVCNMLTMQEFHRRFHEETGVTFASLYPGCIASTGLFREAIPLFRALFPPFQKYITKGYVSETESGKRLAQVVSDPSLTKSGVYWSWNNASASFENQLSEEASDVEKARKVWEISEKLVGLA
- binding result: binds
